{"source": "patent US10400230B2", "about": "“Protease variants and polynucleotides encoding same” (NOVOZYMES A/S, priority 2014, dated 2019)", "molecules": {"B1": {"name": "S27K, I150N, S171N, S173P, G174R, S175P, F180Y, Q198, ET297P: TY145 protease (SEQ ID NO 3) variant with these substitutions (protein, listed as Bacillus sp.)", "chain": "AVPSTQTPWGIKSIYNDQSITKTTGGKGIKVAVLDTGVYTSHLDLAGSAEQCKDFTQSNPLVDGSCTDRQGHGTHVAGTVLAHGGSNGQGVYGVAPQAKLWAYKVLGDNGSGYSDDIAAAIRHVADEASRTGSKVVINMSLGSSAKDSLNASAVDYAYGKGVLIVAAAGNNGPRPNTIGYPGGLVNAVAVAALENVQENGTYRVADFSSRGNPATAGDYIIQERDIEVSAPGASVESTWYTGGYNTISGTSMATPHVAGLAAKIWSANTSLSHSQLRTELQNRAKVYDIKGGIGAGPGDDYASGFGYPRVK"}, "B2": {"name": "S173P, S175P, I178Y, F180Y: TY145 protease (SEQ ID NO 3) variant with these substitutions (protein, listed as Bacillus sp.)", "chain": "B1 chain with K27S, N150I, N171S, R174G, I178Y, E198Q, P297T"}, "B3": {"name": "S173P, S175P, I178P, F180Y: TY145 protease (SEQ ID NO 3) variant with these substitutions (protein, listed as Bacillus sp.)", "chain": "B1 chain with K27S, N150I, N171S, R174G, I178P, E198Q, P297T"}, "B4": {"name": "S27K, K146P, S148R, A151R, S171N, S173P, G174R, S175P, F180Y, Q198E, N199K, T297P: TY145 protease (SEQ ID NO 3) variant with these substitutions (protein, listed as Bacillus sp.)", "chain": "B1 chain with K146P, S148R, N150I, A151R, N199K"}, "B5": {"name": "S173P, S175P, F180Y, L184F: TY145 protease (SEQ ID NO 3) variant with these substitutions (protein, listed as Bacillus sp.)", "chain": "B1 chain with K27S, N150I, N171S, R174G, L184F, E198Q, P297T"}, "B6": {"name": "S173P, S175P, N176Y, F180Y: TY145 protease (SEQ ID NO 3) variant with these substitutions (protein, listed as Bacillus sp.)", "chain": "B1 chain with K27S, N150I, N171S, R174G, N176Y, E198Q, P297T"}, "B7": {"name": "S27K, I121V, S171N, S173P, G174R, S175P, F180Y, L184F, Q198E, T297P: TY145 protease (SEQ ID NO 3) variant with these substitutions (protein, listed as Bacillus sp.)", "chain": "B1 chain with I121V, N150I, L184F"}, "B8": {"name": "S173P, S175P, I178F, F180Y: TY145 protease (SEQ ID NO 3) variant with these substitutions (protein, listed as Bacillus sp.)", "chain": "B1 chain with K27S, N150I, N171S, R174G, I178F, E198Q, P297T"}, "B9": {"name": "S27K, Q70N, G107N, I121V, E127Q, S173P, S175P, F180Y, L184F, Q198E, T297P: TY145 protease (SEQ ID NO 3) variant with these substitutions (protein, listed as Bacillus sp.)", "chain": "B1 chain with Q70N, G107N, I121V, E127Q, N150I, N171S, R174G, L184F"}, "B10": {"name": "S27K, S171N, S173P, G174R, S175P, F180Y, L184F, Q198E, T297P: TY145 protease (SEQ ID NO 3) variant with these substitutions (protein, listed as Bacillus sp.)", "chain": "B1 chain with N150I, L184F"}}, "assay": "Determination of binding constants of inhibitor (NNIC) in Model B detergent, Suc-AAPF-pNA read-out", "format": "biochemical", "conditions": "Ki of variant with the mutation relative to variant without the mutation, <1.0 beneficial", "protocol": "Purified protease variants are pre-diluted to approximately 0.2 mg/ml in dilution buffer. 40 μl diluted protease is then mixed with 40 μl inhibitor solution (Z-Gly-Ala-NHCH(CH2C6H4pOH)C(OH)(SO3Na)—H, wherein Z is benzyloxycarbonyl) or 40 μl 4-FPBA solution in the well of a 96 well microtiter plate (Nunc F 96-MTP). […] After 10 min mixing of protease and inhibitor at room temperature, 30 μl of the mixture is transferred to a microtiter plate (Nunc U96 PP 0.5 ml) with 270 μl Model B detergent in the wells resulting in inhibitor concentrations of 0-30 μM and 4-FPBA concentrations of 0-6000 μM. Protease, inhibitor and detergent is mixed for 1 hour using magnetic bars for 1 hour at room temperature to reach equilibrium. Then 20 μl is transferred to a microtiter plate (Nunc F 96-MTP). 100 μl substrate solution is added and after 5 sec mixing absorbance at 405 nm is measured every 20 sec for 5 min on a SpectraMax Plus reader. Slope from linear regression of initial increase in absorbance at 405 nm is used for calculation of apparent binding constants.\nIt is assumed that protease and inhibitor react according to the equation: E+I ? EI\nWhere E is the protease, I is the inhibitor and EI is the protease-inhibitor complex. […] The concentration of enzyme-inhibitor in the detergent solution is then given by:\nwhere Etot is the total protease concentration ([Etot]=[E]+[EI]), Itot is the total inhibitor concentration ([Itot]=[I]+[EI]), and Ki is the equilibrium binding constant for the reaction. The measured slopes V are given by:\nwhere V0 is the slope without inhibitor added. To calculate apparent binding constant Ki least square fitting of measured slopes at various inhibitor concentrations to this equation is performed with Ki and V0 as variables.\nThe Ki for the parent protease and for each variant was calculated as described above\nHaving the Ki for each variant, it is possible to calculate the effect of a single mutation, if data are available for at least two variants that differ only by that mutation. In this case, the relative Ki for the mutation is calculated:\n[formula] A lower Ki is desirable, as a satisfactory inhibition can be obtained at a lower inhibitor concentration, so beneficial mutations have a relative Ki<1.0 The following table show such relative Kimutation. Each row show: • a mutation (column 1: “Mutation”) • a protease variant (relative to SEQ ID NO: 2) that comprise the mutation from column 1 (column 2: “Variant with the mutation”) • another protease variant (relative to SEQ ID NO: 2), that differs from the one in column 2 only by not having the mutation in column 1 (column 3: “Variant without the mutation”) • Relative Kimutation for the mutation in column 1, in the context of the variant in column 3, measured in Model B detergent (column 4: “inhibitor binding in Model B”) • Relative Kimutation for the mutation in column 1, in the context of the variant in column 3, measured in Tris buffer at pH 8 (column 5: “inhibitor binding in Tris buffer pH 8”)\nKi were calculated as shown in Example 3. The Improvement Factor (IF) or Relative", "note": "Where a chain is given by its changes, count along the chain named. Numbers in names are those of the source. Where “and” joins values, the source holds several entries; their conditions need not be identical. Equal values may be shown once.", "data": [{"molecule": "B1", "values": [{"measurement": "Inhibitor-binding relative Kimutation, inhibitor binding in Model B", "value": 0.24}]}, {"molecule": "B2", "values": [{"measurement": "Inhibitor-binding relative Kimutation, inhibitor binding in Model B", "value": 0.53}]}, {"molecule": "B3", "values": [{"measurement": "Inhibitor-binding relative Kimutation, inhibitor binding in Model B", "value": 0.51}]}, {"molecule": "B4", "values": [{"measurement": "Inhibitor-binding relative Kimutation, inhibitor binding in Model B", "value": 0.75}]}, {"molecule": "B5", "values": [{"measurement": "Inhibitor-binding relative Kimutation, inhibitor binding in Model B", "value": "0.31 and 0.27"}]}, {"molecule": "B6", "values": [{"measurement": "Inhibitor-binding relative Kimutation, inhibitor binding in Model B", "value": 0.81}]}, {"molecule": "B7", "values": [{"measurement": "Inhibitor-binding relative Kimutation, inhibitor binding in Model B", "value": 0.30}]}, {"molecule": "B8", "values": [{"measurement": "Inhibitor-binding relative Kimutation, inhibitor binding in Model B", "value": "0.50 and 0.49"}]}, {"molecule": "B9", "values": [{"measurement": "Inhibitor-binding relative Kimutation, inhibitor binding in Model B", "value": 0.37}]}, {"molecule": "B10", "values": [{"measurement": "Inhibitor-binding relative Kimutation, inhibitor binding in Model B", "value": 0.18}]}]}
